Experimental data taken from US20260150817A1.
Where two headings read alike, the source gives them in different places.

Columns and labels:
[1] = molecular target: SARS-Cov2 Spike Active Trimer SAT (R&D Systems; Catalog No. 10549-CV) (SARS-CoV-2) (UniProt P0DTC2)
[2] = molecular target: SARS-Cov2 Spike Active Trimer SAT (R&D Systems; Catalog No. 10549-CV) (SARS-CoV-2) (UniProt P0DTC2); remark: listed apart in the source
[3] = molecular target: SARS-COV-2 Spike(S) protein with an inactivated furin site, on HEK293-Spike cells (293-SARS2-S-dfur, (SARS-CoV-2) (UniProt P0DTC2))
[4] = molecular target: SARS-Cov2 Spike Active Trimer SAT (R&D Systems; Catalog No. 10549-CV) (SARS-CoV-2) (UniProt P0DTC2); assay: SPR (Biacore)
[5] = molecular target: SARS-Cov2 Spike Active Trimer SAT (R&D Systems; Catalog No. 10549-CV) (SARS-CoV-2) (UniProt P0DTC2); assay: SPR (Carterra)
[6] = molecular target: SARS-Cov2 Spike Active Trimer SAT (R&D Systems; Catalog No. 10549-CV) (SARS-CoV-2) (UniProt P0DTC2); assay: ELISA, serially diluted purified Nb-Fc against SAT antigen

human SAT Nb-Fc control VH-Ab-8 (HAb8-S) (Fc fusion)
Kd [1]: 19.8 nM
Response [2]: 0.489
koff [2]: 0.00294 s⁻¹
kon [2]: 149000 M⁻¹ s⁻¹
GMFI (HEK293-Spike) [3]: 430
GMFI Ratio over No 1st Ab control (HEK293-Spike) [3]: 21.1
Kd [4]: 5.7 nM
Kd [5]: 37.3 nM
EC50 [6]: 0.018 nM
